In the supplement of paper PMC9233669:
Variants at the floor of the assay were thinned out.

Experiments:
biotinyl-Trp-oxazolone = experiment: self-aminoacylation, catalytic enhancement (BWO) (fold over background); higher = more active; k-Seq, kA / k0A0; sequences stand for … in GGGAAUGGAUCCACAUCUACGAAUUC…UUCACUGCAGACUUGACGAAGCUG
Method in brief: (§1)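 The uncatalyzed rate is the low-activity peak of a bimodal Gaussian fit, and catalytic enhancement is median kA divided by it. The kA values came from pseudo-first-order fits, with 1000 bootstraps, of per-sequence fraction reacted measured by streptavidin capture, triplicate qPCR and Illumina sequencing. Mutagenized RNA pools with a 21-nt variable region (0.43 μM) were reacted with each biotinyl-aminoacyl-oxazolone at 2–1250 μM in 50 μL HEPES/NaCl/KCl/MgCl2/CaCl2 buffer with 5% acetonitrile, pH 6.9–7.0, for 90 minutes at room temperature.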

biotinyl-Met-oxazolone = experiment: self-aminoacylation, catalytic enhancement (BMO) (fold over background); higher = more active; k-Seq, kA / k0A0; sequences stand for … in GGGAAUGGAUCCACAUCUACGAAUUC…UUCACUGCAGACUUGACGAAGCUG
Method in brief: as §1

biotinyl-Ile-oxazolone = experiment: self-aminoacylation, catalytic enhancement (BIO) (fold over background); higher = more active; k-Seq, kA / k0A0; sequences stand for … in GGGAAUGGAUCCACAUCUACGAAUUC…UUCACUGCAGACUUGACGAAGCUG
Method in brief: as §1

biotinyl-Phe-oxazolone = experiment: self-aminoacylation, catalytic enhancement (BFO) (fold over background); higher = more active; k-Seq, kA / k0A0; sequences stand for … in GGGAAUGGAUCCACAUCUACGAAUUC…UUCACUGCAGACUUGACGAAGCUG
Method in brief: as §1

biotinyl-Leu-oxazolone = experiment: self-aminoacylation, catalytic enhancement (BLO) (fold over background); higher = more active; k-Seq, kA / k0A0; sequences stand for … in GGGAAUGGAUCCACAUCUACGAAUUC…UUCACUGCAGACUUGACGAAGCUG
Method in brief: as §1

biotinyl-Val-oxazolone = experiment: self-aminoacylation, catalytic enhancement (BVO) (fold over background); higher = more active; k-Seq, kA / k0A0; sequences stand for … in GGGAAUGGAUCCACAUCUACGAAUUC…UUCACUGCAGACUUGACGAAGCUG
Method in brief: as §1

Sequence	self-aminoacylation (biotinyl-Trp-oxazolone)	self-aminoacylation (biotinyl-Met-oxazolone)	self-aminoacylation (biotinyl-Ile-oxazolone)	self-aminoacylation (biotinyl-Phe-oxazolone)	self-aminoacylation (biotinyl-Leu-oxazolone)	self-aminoacylation (biotinyl-Val-oxazolone)
CCACACUUCCUGCAAUCGGUC [Fam1B.1 aminoacylation ribozyme variant]	0.961	0.859	1.04	0.777	1.11	1.19
CCACACUUCGACCAAUCGGUC [Fam1B.1 aminoacylation ribozyme variant]	1.41	1.74	1.31	1.42	1.22	1.85
CCACACUUCGAGCAAUCCGUC [Fam1B.1 aminoacylation ribozyme variant]	1.4	1.03	1.28	0.498	1.08	1.49
CCACACUUCGAGCCAUCGGUC [Fam1B.1 aminoacylation ribozyme variant]	1.02	1.27	1.84	1.27	1.58	1.87
CCACACUUCGAGUAAUCGGUC [Fam1B.1 aminoacylation ribozyme variant]	0.789	0.958	0.822	0.641	0.78	0.893
CCACACUUCUAACAAUCGGUC [Fam1B.1 aminoacylation ribozyme variant]	0.618	0.619	0.797	0.614	0.69	0.798
CCACACUUCUAGCAAUAGGUC [Fam1B.1 aminoacylation ribozyme variant]	0.429	0.554	0.629	0.978	0.53	0.666
CCACACUUCUAGCAAUCGGAC [Fam1B.1 aminoacylation ribozyme variant]	0.61	0.665	0.941	0.585	0.979	0.612
CCACACUUCUAGCAAUCGGGC [Fam1B.1 aminoacylation ribozyme variant]	1.7	1.08	2.09	4.87	1.21	1.64
CCACACUUCUAGCAAUCGGUC [Fam1B.1 aminoacylation ribozyme variant]	0.616	0.611	0.771	0.957	0.624	0.852
CCACACUUCUAGCAAUUGGUC [Fam1B.1 aminoacylation ribozyme variant]	0.401	0.638	0.611	0.539	0.636	0.687
CCACACUUCUAGCACUCGGUC [Fam1B.1 aminoacylation ribozyme variant]	0.913	0.748	0.819	0.649	0.702	0.783
CCACACUUGAACCAAUCGGUC [Fam1B.1 aminoacylation ribozyme variant]	0.742	0.673	0.804	0.969	0.635	0.819
CCACACUUGAAGCUAUCGGUC [Fam1B.1 aminoacylation ribozyme variant]	0.759	0.885	1.07	0.482	0.775	1.02
CCACACUUUAAACAAUCGGUC [Fam1B.1 aminoacylation ribozyme variant]	1.3	0.633	0.718	2.02	0.733	0.825
CCACACUUUAAGCAAUAGGUC [Fam1B.1 aminoacylation ribozyme variant]	0.444	0.592	0.619	1.07	0.578	0.683
CCACACUUUAAGCAAUCGGUA [Fam1B.1 aminoacylation ribozyme variant]	0.553	0.722	0.788	0.889	0.63	0.95
CCACACUUUAAGCGAUCGGUC [Fam1B.1 aminoacylation ribozyme variant]	1.03	1.16	1.13	0.891	1.25	1.11
CCACAGAUCAAGCAAUCGGUC [Fam1B.1 aminoacylation ribozyme variant]	1.61	0.576	1.01	2.39	0.81	0.824
CCACAGUACAAGCAAUCGGUC [Fam1B.1 aminoacylation ribozyme variant]	0.861	1.27	1.17	1.77	1.03	1.24
CCACAGUUCAAGCAAUCGGUA [Fam1B.1 aminoacylation ribozyme variant]	0.707	1.28	1.08	0.787	1.01	1.13
CCACAGUUCAAGCAGUCGGUC [Fam1B.1 aminoacylation ribozyme variant]	0.757	1.01	0.937	0.63	1.04	1.2
CCACAGUUCACGCAAUCGGUC [Fam1B.1 aminoacylation ribozyme variant]	2.1	1.51	1.45	3.2	1.73	1.86
CCACAGUUCAUGCAAUCGGUC [Fam1B.1 aminoacylation ribozyme variant]	0.884	0.972	1.1	0.779	1.16	1.12
CCACAUUUCAAGCAACCGGUC [Fam1B.1 aminoacylation ribozyme variant]	1.34	1.09	1.53	1.11	1.11	1.64
CCACAUUUCAAGCAAUCGGGC [Fam1B.1 aminoacylation ribozyme variant]	2.91	3.55	3.08	1.7	2.78	2.7

Sequence	self-aminoacylation (biotinyl-Trp-oxazolone)	self-aminoacylation (biotinyl-Met-oxazolone)	self-aminoacylation (biotinyl-Ile-oxazolone)	self-aminoacylation (biotinyl-Phe-oxazolone)	self-aminoacylation (biotinyl-Leu-oxazolone)	self-aminoacylation (biotinyl-Val-oxazolone)
CCACAUUUCAAGCAAUCGGUU [Fam1B.1 aminoacylation ribozyme variant]	1.2	1.62	1.59	1.25	1.56	1.71
CCACAUUUCUAGCAAUCGGUC [Fam1B.1 aminoacylation ribozyme variant]	1.22	1.35	1.83	1.49	1.4	1.76
CCACAUUUGAAGCAAUCGGUC [Fam1B.1 aminoacylation ribozyme variant]	0.886	1.04	1.28	1.09	1.17	1.31
CCACCCGUCAAGCAAUCGGUC [Fam1B.1 aminoacylation ribozyme variant]	1.08	1.2	1.24	1.12	1.12	1.44
CCACCCUACAAGCAAUCGGUC [Fam1B.1 aminoacylation ribozyme variant]	1.16	1.3	1.36	0.931	1.19	1.17
CCACCCUUCAAACAAUCGGUC [Fam1B.1 aminoacylation ribozyme variant]	38.9	1.43	1.39	81.3	2.18	1.86
CCACCCUUCAAGCAAUAGGUC [Fam1B.1 aminoacylation ribozyme variant]	0.452	0.575	0.645	0.807	0.529	0.711
CCACCCUUCAAGCAAUCAGUC [Fam1B.1 aminoacylation ribozyme variant]	1.94	0.672	0.736	5.72	0.775	0.828
CCACCCUUCAAGCAAUCGGAC [Fam1B.1 aminoacylation ribozyme variant]	0.664	0.991	1.04	0.866	0.712	1.31
CCACCCUUCAAGCAAUCGUUC [Fam1B.1 aminoacylation ribozyme variant]	0.742	0.584	0.888	0.85	0.611	0.89
CCACCCUUCAAGCACUCGGUC [Fam1B.1 aminoacylation ribozyme variant]	1.46	1.14	1.54	0.826	1.15	1.68
CCACCCUUCAAGGAAUCGGUC [Fam1B.1 aminoacylation ribozyme variant]	4	1.34	1.36	3.31	1.27	1.32
CCACCCUUCAGGCAAUCGGUC [Fam1B.1 aminoacylation ribozyme variant]	1.71	1.57	1.71	1.82	1.55	2.12
CCACCCUUUAAGCAAUCGGUC [Fam1B.1 aminoacylation ribozyme variant]	0.888	0.892	1.16	1.34	0.983	1.21
CCACGCGUCAAGCAAUCGGUC [Fam1B.1 aminoacylation ribozyme variant]	0.802	0.841	0.827	0.748	0.71	1.2
CCACGCUUCAAGCAAACGGUC [Fam1B.1 aminoacylation ribozyme variant]	0.544	0.457	0.647	0.644	0.477	0.665
CCACGCUUCAAGCAAUCGGUG [Fam1B.1 aminoacylation ribozyme variant]	4.43	3.73	2.49	5.52	5.09	2.41
CCACGGUUCAAGCAAUCGGUC [Fam1B.1 aminoacylation ribozyme variant]	2.21	1.02	1.08	2.64	1.07	1.22
CCACGUCAAACAAUCGGUCUG [Fam1A.1 aminoacylation ribozyme variant]	2.31	1.75	1.89	2.2	1.36	1.95
CCACGUUUCAAGCAAUCGGUC [Fam1B.1 aminoacylation ribozyme variant]	37.6	2.85	2.68	77.2	3.36	3.47
CCACUCUUCAAGCAAGCGGUC [Fam1B.1 aminoacylation ribozyme variant]	0.585	0.806	0.909	0.629	1.09	0.97
CCACUCUUCAAGCAAUCGAUC [Fam1B.1 aminoacylation ribozyme variant]	0.516	0.448	0.542	1.28	0.522	0.735
CCACUCUUCAAGUAAUCGGUC [Fam1B.1 aminoacylation ribozyme variant]	3.88	0.823	0.854	4.71	0.969	1.08
CCACUCUUCACGCAAUCGGUC [Fam1B.1 aminoacylation ribozyme variant]	0.952	1.05	1.08	0.819	1.13	1.21
CCACUUCAAACAAUCGGGCUG [Fam1A.1 aminoacylation ribozyme variant]	27.2	2.13	2.12	27.3	2.63	3.05
